# “Also recorded” adds a separate entry of the source.
# T1: Human VEGF 165 (Homo sapiens, UniProt P15692)
# T1 construct: Avi; purchased R&D Systems AVI-293-050
# T1 sequence (P15692 27-191 isoform P15692-4): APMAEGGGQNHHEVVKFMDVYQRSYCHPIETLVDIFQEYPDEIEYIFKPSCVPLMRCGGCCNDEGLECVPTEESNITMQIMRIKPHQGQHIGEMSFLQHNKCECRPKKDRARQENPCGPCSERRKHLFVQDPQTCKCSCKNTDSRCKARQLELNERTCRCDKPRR
# What was measured:
# Human VEGF 165 = target: T1, Human VEGF 165; assay: Accelerated 37° C. stability study, VEGF binding by BLI over time; details: DARPin MVPs, aging 28 and 32 days at 37° C., compared with Conjugate 2
# Description: MVP stability was assessed by setting up a long term accelerated […] stability by maintaining the MVPs at 37° C. at 5-10X the therapeutic concentration in pH 7.3 vitreous mimetic buffer (Table 19) or pH 7.4 PBS 0.01% tween 20. MVP stability was assessed using SEC MALS or SEC, DLS, and/or BLI analysis of samples removed after various times.
# Long-term 37° C. stability studies were set up to assess composition impact on MVP stability. MVPs were synthesized under sterile conditions and diluted to around 0.4 mg/mL in a sterile filtered human vitreous mimetic buffer. This concentration is 5X higher than intravitreal therapeutic concentration of our predicted clinical dose. […] At discrete timepoints, one aliquot from each sample was removed from the plate under sterile conditions and analyzed. […] Then, the protein concentration is measured to adjust for any differences in volume that may have occurred. The binding affinity to is measured using BLI. […] To monitor changes in radius over time, the samples are spun for 5 minutes at 5000 g to remove any large aggregates or dust particles and the Rh is measured using DLS without any sample dilution.
# The change in binding affinity over time using biolayer interferometry (BLI) was also determined. […] Analytes were prepared at the top concentration determined in pilot reactions in BLI buffer and serially diluted 1:3 two to five more times using BLI buffer. […]
# [1] = SEC analysis of MVP stability samples aged at 37° C.; type: physicochemical; details: anti-VEGF DARPin MVPs stored up to 71 days at 37° C., compared with Conjugate 2
# Description: Stability study samples were analyzed using HPLC size exclusion chromatography (SEC). This method was also used to analyze MVP formation and percent unreacted protein after purification. To assess stability via SEC, MVP was filtered to remove particles and analyzed using a Shodex 1 MDa Ohpak LB-804, Shodex KW-404 or 405, or Phenomenex PolySep6000 column with DPBS or appropriate solvent as the mobile phase to get baseline trace at 280 nm, 230 nm, etc. After various time points samples were removed and analyzed using the same SEC method. Increases in retention time and peak width relative to the baseline sample indicated degradation. In addition, decreases in MVP peak area and/or increases in monomer and dimer protein species peak area also indicate MVP degradation. Percent conjugate loss was quantified by comparing peak area differences with time. In the future, the SEC stability analysis will be coupled with MALS to quantify molecular weight and valency changes of the conjugate with age at different temperatures. […]
# Stability study samples were also analyzed by coupling SEC with MALS analysis for determination of MVP radius of gyration (Rg,z) and molecular weight at different time points after aging at 37° C. […] System-specific calibration numbers, normalization coefficients, delay volumes, and band broadening terms were determined for the system prior to analysis. […]
molecule,measurement,setting,value
"Conjugate 1: HA conjugate of anti-VEGF DARPin peptide SEQ ID NO: 92, made from Method 5 intermediate 5-4 (MP2H) (conjugate, hyaluronic acid conjugate; anti-VEGF DARPIN) GSDLDKKLLEAARAGQDDEVRILMANGADVNARDSTGWTPLHLAAPWGHPEIVEVLLKNGADVNAADFQGWTPLHLAAAVGHLEIVEVLLKYGADVNAQDKFGKTAFDISIDNGNEDLAEILQKAAGGGSGGGS",association constant (Kon) initially and with aging,Human VEGF 165,lower Kon and slower association initially and with aging
same,SEC retention time / radius change with aging,[1],much larger increase in retention time and contraction of radius; also recorded: larger losses in radius with aging

# From patent US20230405133A1, “PURIFIED MULTIVALENT PROTEIN-HYALURONIC ACID POLYMER CONJUGATES” (Valitor, Inc., priority 2022, published 2023)
